Test results as given in article PMC12865031, “Mechanistic insights into PCBP1-driven unfolding of selected i-motif DNA at G1/S checkpoint”.

What was measured:
PCBP1 (wild type) [1] = molecular target: T1, PCBP1 (wild type) (UniProt Q15365 1-356); experiment: CD titration; stronger blue-shift than wild-type BCL2; MST: 20 mM MES pH 6.4, phosphate pH 7.0 or Tris-Cl pH 8.0, 100 mM NaCl, 25 C; EMSA: 20 mM Bis-Tris pH 6.4 or Tris-HCl pH 8.0, 100 mM NaCl, 0.25 mg/mL BSA, 25 C; NMR/CD: 20 mM MES pH 6.4, 100 mM NaCl; footprinting 20 mM MES pH 6.4, 50 mM NaCl; settings: protein: recombinant; tags: His tag (pET-His1a), removed by TEV; i-motif without hairpin
T1 sequence (Q15365 whole entry): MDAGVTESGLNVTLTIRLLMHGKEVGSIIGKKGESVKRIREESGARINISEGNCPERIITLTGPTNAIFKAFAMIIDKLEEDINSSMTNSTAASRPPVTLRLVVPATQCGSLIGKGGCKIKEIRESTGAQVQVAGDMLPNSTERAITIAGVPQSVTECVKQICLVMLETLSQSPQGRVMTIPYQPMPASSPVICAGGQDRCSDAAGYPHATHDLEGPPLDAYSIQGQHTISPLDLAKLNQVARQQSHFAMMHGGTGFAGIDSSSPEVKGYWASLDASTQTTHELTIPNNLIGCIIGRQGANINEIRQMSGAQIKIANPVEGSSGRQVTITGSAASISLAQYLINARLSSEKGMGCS

PCBP1 (wild type) [2] = molecular target: T1, PCBP1 (wild type); experiment: EMSA; pH 6.4, i-motif; two shifted bands; MST: 20 mM MES pH 6.4, phosphate pH 7.0 or Tris-Cl pH 8.0, 100 mM NaCl, 25 C; EMSA: 20 mM Bis-Tris pH 6.4 or Tris-HCl pH 8.0, 100 mM NaCl, 0.25 mg/mL BSA, 25 C; NMR/CD: 20 mM MES pH 6.4, 100 mM NaCl; footprinting 20 mM MES pH 6.4, 50 mM NaCl; settings: protein: recombinant; tags: His tag (pET-His1a), removed by TEV; label: 5'-Cy5 (EMSA, MST); intramolecular i-motif with co-existing hairpin at pH 6.4; unfolded at pH 7.0 and 8.0
PCBP1 (wild type) [3] = molecular target: T1, PCBP1 (wild type); experiment: EMSA; pH 6.4; MST: 20 mM MES pH 6.4, phosphate pH 7.0 or Tris-Cl pH 8.0, 100 mM NaCl, 25 C; EMSA: 20 mM Bis-Tris pH 6.4 or Tris-HCl pH 8.0, 100 mM NaCl, 0.25 mg/mL BSA, 25 C; NMR/CD: 20 mM MES pH 6.4, 100 mM NaCl; footprinting 20 mM MES pH 6.4, 50 mM NaCl; settings: protein: recombinant; tags: His tag (pET-His1a), removed by TEV; label: 5'-Cy5 (EMSA); unfolded
PCBP1 (wild type) [4] = molecular target: T1, PCBP1 (wild type); experiment: bromine footprinting; pH 6.4; enhanced cleavage across all Cs; MST: 20 mM MES pH 6.4, phosphate pH 7.0 or Tris-Cl pH 8.0, 100 mM NaCl, 25 C; EMSA: 20 mM Bis-Tris pH 6.4 or Tris-HCl pH 8.0, 100 mM NaCl, 0.25 mg/mL BSA, 25 C; NMR/CD: 20 mM MES pH 6.4, 100 mM NaCl; footprinting 20 mM MES pH 6.4, 50 mM NaCl; settings: protein: recombinant; tags: His tag (pET-His1a), removed by TEV; label: 3'-Cy5; intramolecular i-motif at pH 6.4
PCBP1 KH1+2 [5] = molecular target: T2, PCBP1 KH1+2 (UniProt Q15365 1-169); experiment: bromine footprinting; pH 6.4; increased cleavage at C3-C5 and C12-C14; MST: 20 mM MES pH 6.4, phosphate pH 7.0 or Tris-Cl pH 8.0, 100 mM NaCl, 25 C; EMSA: 20 mM Bis-Tris pH 6.4 or Tris-HCl pH 8.0, 100 mM NaCl, 0.25 mg/mL BSA, 25 C; NMR/CD: 20 mM MES pH 6.4, 100 mM NaCl; footprinting 20 mM MES pH 6.4, 50 mM NaCl; settings: protein: recombinant; tags: His tag (pET-His1a), removed by TEV; label: 3'-Cy5; intramolecular i-motif at pH 6.4
T2 sequence (Q15365 1-169): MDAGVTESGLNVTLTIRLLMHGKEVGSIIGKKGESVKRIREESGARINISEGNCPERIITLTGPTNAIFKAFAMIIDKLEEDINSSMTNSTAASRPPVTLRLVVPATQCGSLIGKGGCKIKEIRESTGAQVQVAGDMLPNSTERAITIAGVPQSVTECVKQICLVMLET

PCBP1 KH1+2;PCBP1 KH3 [6] = molecular target: T3, PCBP1 KH1+2;PCBP1 KH3 (Homo sapiens?;Homo sapiens?, UniProt Q15365;Q15365 1-169;269-356, |); experiment: bromine footprinting; pH 6.4; cleavage enhanced across all Cs; MST: 20 mM MES pH 6.4, phosphate pH 7.0 or Tris-Cl pH 8.0, 100 mM NaCl, 25 C; EMSA: 20 mM Bis-Tris pH 6.4 or Tris-HCl pH 8.0, 100 mM NaCl, 0.25 mg/mL BSA, 25 C; NMR/CD: 20 mM MES pH 6.4, 100 mM NaCl; footprinting 20 mM MES pH 6.4, 50 mM NaCl; settings: protein: recombinant;recombinant, tags: His tag (pET-His1a), removed by TEV;His tag (pET-His1a), copies: 1;1, label: 3'-Cy5, intramolecular i-motif at pH 6.4
T3 sequence (Q15365 1-169, chain 1 of 2): as the sequence (Q15365 1-169) above
T3 sequence (Q15365 269-356, chain 2 of 2): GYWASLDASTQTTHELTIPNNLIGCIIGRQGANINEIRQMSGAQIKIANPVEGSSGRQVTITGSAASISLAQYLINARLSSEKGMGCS

PCBP1 (wild type) [7] = molecular target: T1, PCBP1 (wild type); experiment: MST; pH 6.4, i-motif; stronger than pH 8.0; MST: 20 mM MES pH 6.4, phosphate pH 7.0 or Tris-Cl pH 8.0, 100 mM NaCl, 25 C; EMSA: 20 mM Bis-Tris pH 6.4 or Tris-HCl pH 8.0, 100 mM NaCl, 0.25 mg/mL BSA, 25 C; NMR/CD: 20 mM MES pH 6.4, 100 mM NaCl; footprinting 20 mM MES pH 6.4, 50 mM NaCl; settings: protein: recombinant; tags: His tag (pET-His1a), removed by TEV; label: 5'-Cy5 (MST); i-motif at pH 6.4 and 7.0; unfolded at pH 8.0
PCBP1 (wild type) [8] = molecular target: T1, PCBP1 (wild type); experiment: EMSA; pH 6.4, i-motif; MST: 20 mM MES pH 6.4, phosphate pH 7.0 or Tris-Cl pH 8.0, 100 mM NaCl, 25 C; EMSA: 20 mM Bis-Tris pH 6.4 or Tris-HCl pH 8.0, 100 mM NaCl, 0.25 mg/mL BSA, 25 C; NMR/CD: 20 mM MES pH 6.4, 100 mM NaCl; footprinting 20 mM MES pH 6.4, 50 mM NaCl; settings: protein: recombinant; tags: His tag (pET-His1a), removed by TEV; label: 5'-Cy5 (EMSA, MST); intramolecular i-motif at pH 6.4; unfolded at pH 7.0 and 8.0
PCBP1 KH1+2;PCBP1 KH3 [9] = molecular target: T3, PCBP1 KH1+2;PCBP1 KH3; experiment: MST; pH 6.4; affinity and selectivity for i-motif restored; MST: 20 mM MES pH 6.4, phosphate pH 7.0 or Tris-Cl pH 8.0, 100 mM NaCl, 25 C; EMSA: 20 mM Bis-Tris pH 6.4 or Tris-HCl pH 8.0, 100 mM NaCl, 0.25 mg/mL BSA, 25 C; NMR/CD: 20 mM MES pH 6.4, 100 mM NaCl; footprinting 20 mM MES pH 6.4, 50 mM NaCl; settings: protein: recombinant;recombinant, tags: His tag (pET-His1a), removed by TEV;His tag (pET-His1a), copies: 1;1, label: 5'-Cy5 (EMSA, MST), intramolecular i-motif at pH 6.4, unfolded at pH 7.0 and 8.0
PCBP1 KH1+2 [10] = molecular target: T2, PCBP1 KH1+2; experiment: MST; pH 6.4; no structural selectivity; MST: 20 mM MES pH 6.4, phosphate pH 7.0 or Tris-Cl pH 8.0, 100 mM NaCl, 25 C; EMSA: 20 mM Bis-Tris pH 6.4 or Tris-HCl pH 8.0, 100 mM NaCl, 0.25 mg/mL BSA, 25 C; NMR/CD: 20 mM MES pH 6.4, 100 mM NaCl; footprinting 20 mM MES pH 6.4, 50 mM NaCl; settings: protein: recombinant; tags: His tag (pET-His1a), removed by TEV; label: 5'-Cy5 (EMSA, MST); intramolecular i-motif at pH 6.4; unfolded at pH 7.0 and 8.0

CATCCCCTCTCCCTCCCCCTTCCTCCCTCTCCCTCCCCT (structured_DNA) [BCL2-Gall>T]: binds (PCBP1 (wild type) [1]).

CAGCCCCGCTCCCGCCCCCTTCCTCCCGCGCCCGCCCCT (structured_DNA) [BCL2-iMfs]: binds (PCBP1 (wild type) [2]).

CAGCCCCGCTCCCGCCCCCTTCCTCCCTCTCCCGCCCCT (structured_DNA) [BCL2-G10TG12T]: binds (PCBP1 (wild type) [1]).

TACACTCACACTCACACTCACACTCAA (ssDNA) [mutC]: no binding (PCBP1 (wild type) [3]).

AATCCCACCCCTCCCATCCCTTTTT (structured_DNA) [cMYC-iMfs-Br]: binds (PCBP1 (wild type) [4]); binds (PCBP1 KH1+2 [5]); binds (PCBP1 KH1+2;PCBP1 KH3 [6]).

CCCCCCCTTTCCCCCCCTTTCCCCCCCTTTCCCCCCC (structured_DNA) [C7T3-iMfs]: binds (PCBP1 (wild type) [7]).

TGTCCCCACACCCCTGTCCCCACACCCCTGT (structured_DNA) [ILPR-iMfs]: binds (PCBP1 (wild type) [8]).

AATCCCACCCCTCCCATCCCTT (structured_DNA) [cMYC-iMfs]: binds (PCBP1 KH1+2;PCBP1 KH3 [9]); binds (PCBP1 KH1+2 [10]); binds (PCBP1 (wild type) [8]).

CCCTAACCCTAACCCTAACCCT (structured_DNA) [hTeloC-iMfs]: binds (PCBP1 (wild type) [8]).
